From patent US20210340231A1 (FAPON BIOTECH, published 2021)
Residue numbers refer to the chain shown, from its start.

B1: Mutation 1-53 (antibody, V domains shown)
VH: EVQLQQSGAELVKPGASVKLSCTASGFNIKDYYMHWMKQRTEQGLDWIGRIDPEDAETKYAPEFQGKATITADTSSNTAYLQLSTLTSEDTAVYYCARYYSSYLPFVYWGQGTLVTASA
VL: DVVMTQTPLSLSVSLGDQASISCRSSQSIIYSNRHTYLHWYLQKPGQSPKLLIFQLSNRFSGVPDRFSGSGSGTDFTLKINRVEAEDLGVYFCSQSTHIPYTFGSGTKLEIKR
notes: built as for Mutation 1
B2: Mutation 1-31 (antibody, V domains shown)
VH: B1 VH with L104V
VL: B1 VL with I30L, L56V
notes: built as for Mutation 1
B3: Mutation 1-6 (antibody, V domains shown)
VH: B1 VH with Y33F, A56G, L104V
VL: B1 VL with I30L, L56V
notes: built as for Mutation 1
B4: Mutation 1-52 (antibody, V domains shown)
VH: B1 VH with Y33F, K59R, L104V
VL: B1 VL with I29L, I30L, L56V, I99L, Y101F
notes: built as for Mutation 1
B5: Mutation 1-50 (antibody, V domains shown)
VH: B1 VH with I29L, Y33F, L104I
VL: B1 VL with I30L, L56I, Y101F
notes: built as for Mutation 1
B6: Mutation 1-23 (antibody, V domains shown)
VH: B1 VH with A56G, L104I
VL: B1 VL with I30L, L56I
notes: built as for Mutation 1
B7: Mutation 1-24 (antibody, V domains shown)
VH: B1 VH with I29L, Y33F, K59R, L104V
VL: B1 VL with I29L, I30L, L56V, Y101F
notes: built as for Mutation 1
B8: Mutation 1-18 (antibody, V domains shown)
VH: B1 VH with Y33F, L104I
VL: B1 VL with I30L, L56I, I99L, Y101F
notes: built as for Mutation 1
B9: Mutation 1-37 (antibody, V domains shown)
VH: B1 VH with Y33F, A56G, L104V
VL: B1 VL with I30L, L56V, I99L
notes: built as for Mutation 1
B10: Mutation 1-14 (antibody, V domains shown)
VH: B1 VH with Y33F, L104I
VL: B1 VL with I29L, I30L, L56I, Y101F
notes: built as for Mutation 1
B11: Mutation 1-34 (antibody, V domains shown)
VH: B1 VH with Y33F, A56G, L104I
VL: B1 VL with I29L, I30L, L56I
notes: built as for Mutation 1
B12: Mutation 1-11 (antibody, V domains shown)
VH: B1 VH with L104V
VL: B1 VL with I30L, L56V, Y101F
notes: built as for Mutation 1
B13: Mutation 1-38 (antibody, V domains shown)
VH: B1 VH with L104I
VL: B1 VL with I29L, L56I, Y101F
notes: built as for Mutation 1
B14: Mutation 1-44 (antibody, V domains shown)
VH: B1 VH with Y33F
VL: B1 VL with I30L, I99L, Y101F
notes: built as for Mutation 1
B15: Mutation 1-4 (antibody, V domains shown)
VH: B1 VH with I29L, Y33F, L104V
VL: B1 VL with I29L, I30L, L56V, I99L, Y101F
notes: built as for Mutation 1

Target: T1, CTNI quality control recombinant protein (PK2-CTNI-1, 170120, produced by the applicant) (human, UniProt P19429 2-210, limits assumed)
T1 construct: also called cardiac troponin I
Assay: AMC sensor kinetics, antibody captured, cTnI analyte
Method: Using the AMC sensor, the purified antibody was diluted with PBST to 10 μg/ml, and the CTNI quality control recombinant protein (PK2-CTNI-1, 170120, produced by the applicant) was serially diluted with PBST to 400 nmol/ml, 200 nmol/ml, 100 nmol/ml, 50 nmol/ml, 25 nmol/ml, 12.5 nmol/ml, 6.25 nmol/ml, and 0 nmol/ml.

T1 sequence (P19429 2-210 limits assumed): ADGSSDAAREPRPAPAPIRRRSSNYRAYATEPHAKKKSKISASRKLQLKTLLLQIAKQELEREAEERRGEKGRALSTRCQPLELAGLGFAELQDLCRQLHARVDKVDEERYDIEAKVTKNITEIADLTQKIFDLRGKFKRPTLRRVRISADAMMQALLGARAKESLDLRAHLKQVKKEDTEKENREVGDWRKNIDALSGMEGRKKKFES

Kd	koff	kon	Binder
0.721 nM	0.000243 s⁻¹	337000 M⁻¹ s⁻¹	B1
0.795 nM	0.000301 s⁻¹	378000 M⁻¹ s⁻¹	B2
0.734 nM	0.000266 s⁻¹	362000 M⁻¹ s⁻¹	B3
0.941 nM	0.000229 s⁻¹	243000 M⁻¹ s⁻¹	B4
0.386 nM	5.48e-05 s⁻¹	142000 M⁻¹ s⁻¹	B5
0.968 nM	0.000673 s⁻¹	695000 M⁻¹ s⁻¹	B6
0.408 nM	0.000259 s⁻¹	635000 M⁻¹ s⁻¹	B7
0.68 nM	0.000282 s⁻¹	415000 M⁻¹ s⁻¹	B8
0.667 nM	0.000267 s⁻¹	400000 M⁻¹ s⁻¹	B9
0.415 nM	0.000279 s⁻¹	673000 M⁻¹ s⁻¹	B10
1.41 nM	0.000598 s⁻¹	424000 M⁻¹ s⁻¹	B11
0.606 nM	0.000443 s⁻¹	731000 M⁻¹ s⁻¹	B12
0.24 nM	0.000103 s⁻¹	431000 M⁻¹ s⁻¹	B13
0.865 nM	0.000464 s⁻¹	537000 M⁻¹ s⁻¹	B14
0.963 nM	0.00023 s⁻¹	239000 M⁻¹ s⁻¹	B15
